Data from patent US20100292089A1 (CYTOS BIOTECHNOLOGY, published 2010).
Residue numbers refer to the chain shown, from its start.

T1: Qβ (RNA bacteriophage Qbeta, UniProt P03615 2-133)
T1 construct: The description says it is a VLP of RNA bacteriophage Qbeta; also called Qbeta; VLP of RNA bacteriophage Qbeta
T1 sequence: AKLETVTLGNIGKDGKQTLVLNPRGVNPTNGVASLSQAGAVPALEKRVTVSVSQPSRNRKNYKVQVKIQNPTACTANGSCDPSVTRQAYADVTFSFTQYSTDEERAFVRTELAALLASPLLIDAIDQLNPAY

B1: scFv-Qb#5-Fc (Fc fusion)
scFv: DADPAQAAELVLTQPPSVSGAPGQRVSISCTGSSSNIGARYDVHWYQQLPGTAPKLLIYGNTNRPSGVPDRFSGSKSGSSASLAITGLQAEDEADYYCQSYDRSLSGVVFGGGTKLTVLGGGSSRSSSSGGGGSGGGGEVQLVQSGPGLVKPSETLSLTCTVSGGSISSTSYSWGWIRQPPGKGLEWIATVSYSGRSYSNPSLKSRVTTSVDTSKNQFSLRLGSVTAADTAVYYCARLYYIWRSYHSGRFDYWGQGTLVPVSSASTKGPSVTSGQAGRKLTHTCPPCPAPEAEGAPSVFLFPPKPKDTLMISRTPEVTCVVVDVSHEDPEVKFNWYVDGVEVHNAKTKPREEQYNSTYRVVSVLTVLHQDWLNGKEYKCKVSNKALPASIEKTISKAKGQPREPQVYTLPPSRDELTKNQVSLTCLVKGFYPSDIAVEWESNGQPENNYKTTPPVLDSDGSFFLYSKLTVDKSRWQQGNVFSCSVMHEALHNHYTQKSLSLSPGK
notes: The entry may contain the signal peptide; also called pCEP/scFvQb#5-Fc product
B2: scFv-Qb#2-Fc (Fc fusion)
scFv: DADPAQAAELGLTQPPSVSGAPGQRVTISCTGSSSNIGRFDVHWYQQLPGTAPKLLIYGNTNRPSGVPDRFSGSKSGSSASLAITGLQAEDEADYYCQSYDRSLSGVVFGGGTQLTVLGGGSSRSSSSGGGGSGGGGEVQLLESGPGLVKPSETLSLTCTVSGGSISSGNYYWSWIRQTPEKGLEWLGYVHYTGSSKLNPSLKSRVTISVDTYTNQFSLSLSSMTAADTAVYYCARGKNCANDICYIGSWFDPWGQGTLVTVSSASTKGPSVTSGQAGRKLTHTCPPCPAPEAEGAPSVFLFPPKPKDTLMISRTPEVTCVVVDVSHEDPEVKFNWYVDGVEVHNAKTKPREEQYNSTYRVVSVLTVLHQDWLNGKEYKCKVSNKALPASIEKTISKAKGQPREPQVYTLPPSRDELTKNQVSLTCLVKGFYPSDIAVEWESNGQPENNYKTTPPVLDSDGSFFLYSKLTVDKSRWQQGNVFSCSVMHEALHNHYTQKSLSLSPGK
notes: also called pCEP/scFvQb#2-Fc product
B3: scFv-Qb#3-Fc (Fc fusion)
scFv: DADPAQAAELVMTQSPSSLSASVGDRVTITCRASQGVSRALAWYQQKPGNPPKLLIYDASNLQSGVPSRFSGGGSGTEFILTISSLQPEDFATYYCQQYNAYPWTFGQGTKLEIKGGSSRSSSSGGGGSGGGGQVQLQESGPGLVKPSETLSLTCTVSGGSISSGNYYWSWIRQTPEKGLEWLGYVHYTGSSKLNPSLKSRVTISVDTYTNQFSLSLSSMTAADTAVYYCARGKNCANDICYIGSWFDPWGQGTLVTVSSASTKGPSVTSGQAGRKLTHTCPPCPAPEAEGAPSVFLFPPKPKDTLMISRTPEVTCVVVDVSHEDPEVKFNWYVDGVEVHNAKTKPREEQYNSTYRVVSVLTVLHQDWLNGKEYKCKVSNKALPASIEKTISKAKGQPREPQVYTLPPSRDELTKNQVSLTCLVKGFYPSDIAVEWESNGQPENNYKTTPPVLDSDGSFFLYSKLTVDKSRWQQGNVFSCSVMHEALHNHYTQKSLSLSPGK
notes: The entry may contain the signal peptide; also called pCEP/scFvQb#3-Fc product
B4: scFv-Qb#8-Fc (Fc fusion)
scFv: DADPAQAAELVVTQEPSVSGAPGQSVTISCTGGSSNIGASYDVHWYKQLPGAAPILLIYANYIRPSGVPDRFSASKSGTSASLAITGLQAEDEADYYCQSYDSSLSGVVFGGGTKLTVLGGGSSRSSSSGGGGSGGGGQVQLQESGGGWVQSGGSLRLSCAASGFSFSSYAMSWVRQAPGKGLEWVSAMSPIGGSTFYADSVKGRFTISRDNSKNTLFLQMNSLRAEDTAVYYCAKDAVVTAVGLGRYFDLWGRGTLVSVSSASTKGPSVTSGQAGRKLTHTCPPCPAPEAEGAPSVFLFPPKPKDTLMISRTPEVTCVVVDVSHEDPEVKFNWYVDGVEVHNAKTKPREEQYNSTYRVVSVLTVLHQDWLNGKEYKCKVSNKALPASIEKTISKAKGQPREPQVYTLPPSRDELTKNQVSLTCLVKGFYPSDIAVEWESNGQPENNYKTTPPVLDSDGSFFLYSKLTVDKSRWQQGNVFSCSVMHEALHNHYTQKSLSLSPGK
notes: The entry may contain the signal peptide; also called pCEP/scFvQb#8-Fc product
B5: Qb#3 Fab fragment (Fab, V domains shown)
VH: QVQLQESGPGLVKPSETLSLTCTVSGGSISSGNYYWSWIRQTPEKGLEWLGYVHYTGSSKLNPSLKSRVTISVDTYTNQFSLSLSSMTAADTAVYYCARGKNCANDICYIGSWFDPWGQGTLVTVSS
VL: ELVMTQSPSSLSASVGDRVTITCRASQGVSRALAWYQQKPGNPPKLLIYDASNLQSGVPSRFSGGGSGTEFILTISSLQPEDFATYYCQQYNAYPWTFGQGTKLEIK
notes: domain: γ2 heavy chain Fd region; The Fd part is from human γ2; also called Qβ#3 Fab; pCB15-Qb#3-Fab product; not shown: human κ light chain constant region (vector pCMV-LC)
B6: Qb#2 Fab fragment (Fab, V domains shown)
VH: B5 VH with Q1E, Q5L
VL: ELGLTQPPSVSGAPGQRVTISCTGSSSNIGRFDVHWYQQLPGTAPKLLIYGNTNRPSGVPDRFSGSKSGSSASLAITGLQAEDEADYYCQSYDRSLSGVVFGGGTQLTVLG
notes: domain: γ2 heavy chain Fd region; The Fd part is from human γ2; also called Qβ#2 Fab; pCB15-Qb#2-Fab product; not shown: human κ light chain constant region (vector pCMV-LC)
B7: Qb#5 Fab fragment (Fab, V domains shown)
VH: EVQLVQSGPGLVKPSETLSLTCTVSGGSISSTSYSWGWIRQPPGKGLEWIATVSYSGRSYSNPSLKSRVTTSVDTSKNQFSLRLGSVTAADTAVYYCARLYYIWRSYHSGRFDYWGQGTLVPVSS
VL: ELVLTQPPSVSGAPGQRVSISCTGSSSNIGARYDVHWYQQLPGTAPKLLIYGNTNRPSGVPDRFSGSKSGSSASLAITGLQAEDEADYYCQSYDRSLSGVVFGGGTKLTVLG
notes: domain: γ2 heavy chain Fd region; The Fd part is from human γ2; also called Qβ#5 Fab; pCB15-Qb#5-Fab product; not shown: human κ light chain constant region (vector pCMV-LC)
B8: Qb#8 whole IgG2 (antibody, V domains shown)
VH: QVQLQESGGGWVQSGGSLRLSCAASGFSFSSYAMSWVRQAPGKGLEWVSAMSPIGGSTFYADSVKGRFTISRDNSKNTLFLQMNSLRAEDTAVYYCAKDAVVTAVGLGRYFDLWGRGTLVSVSS
VL: ELVVTQEPSVSGAPGQSVTISCTGGSSNIGASYDVHWYKQLPGAAPILLIYANYIRPSGVPDRFSASKSGTSASLAITGLQAEDEADYYCQSYDSSLSGVVFGGGTKLTVLG
notes: domain: γ2 heavy chain constant region; also called Qβ#8 IgG2; pCB15-Qb#8-IgG2 product; not shown: human κ light chain constant region (vector pCMV-LC)
B9: Qb#3 whole IgG2 (antibody, V domains shown)
VH: B5 VH
VL: B5 VL
notes: domain: γ2 heavy chain constant region; also called Qβ#3 IgG2; pCB15-Qb#3-IgG2 product; not shown: human κ light chain constant region (vector pCMV-LC)
B10: Qb#2 whole IgG2 (antibody, V domains shown)
VH: B5 VH with Q1E, Q5L
VL: B6 VL
notes: domain: γ2 heavy chain constant region; also called Qβ#2 IgG2; pCB15-Qb#2-IgG2 product
B11: Qb#5 whole IgG2 (antibody, V domains shown)
VH: B7 VH
VL: B7 VL
notes: domain: γ2 heavy chain constant region; also called Qβ#5 IgG2; pCB15-Qb#5-IgG2 product; not shown: human κ light chain constant region (vector pCMV-LC)

The binders below were run against T1, Qβ (assay: ELISA, Qβ coated, purified scFv-Fc titrated; concentration of half-maximal binding).

Q: For B1, which EC50 is on record?
A: 0.052 nM

Q: With B2 as the binder, how does the EC50 read?
A: 0.051 nM

Q: How did the EC50 turn out when B3 was run?
A: 0.035 nM

Q: B4 was tested. Which EC50 did it give?
A: 0.163 nM

What follows are binders tested against T1, Qβ (assay: ELISA, Qβ coated, purified Fab; range of concentrations of half-maximal binding).

Q: With B5 as the binder, how does the EC50 read?
A: 0.077 to 0.239 nM

Q: B6 was tested. Which EC50 did it give?
A: 0.261 to 0.454 nM

Q: With B7 as the binder, how does the EC50 read?
A: 0.082 to 0.236 nM

These binders were tested against T1, Qβ (assay: ELISA, Qβ coated, purified IgG2; range of concentrations of half-maximal binding).

Q: How did the EC50 turn out when B8 was run?
A: 0.456 to 1.1 nM

Q: How did the EC50 turn out when B9 was run?
A: 0.015 to 0.037 nM

Q: With B10 as the binder, how does the EC50 read?
A: 0.025 to 0.056 nM

Q: Which EC50 does the source give for B11 here?
A: 0.021 to 0.054 nM
